{
  "source": "paper PMC8062630",
  "about": "“Structure and assembly of double-headed Sendai virus nucleocapsids” (Communications Biology, 2021)",
  "proteins": {"B1": {"name": "Sendai virus nucleoprotein, wild type, uncleaved (NWT), assembled as nucleocapsid NCWT (natural protein)", "chain": "MAGLLSTFDTFSSRRSESINKSGGGAVIPGQRSTVSVFVLGPSVTDDADKLSIATTFLAHSLDTDKQHSQRGGFLVSLLAMAYSSPELYLTTNGVNADVKYVIYNIEKDPKRTKTDGFIVKTRDMEYERTTEWLFGPMVNKSPLFQGQRDAADPDTLLQIYGYPACLGAIIVQVWIVLVKAITSSAGLRKGFFNRLEAFRQDGTVKGALVFTGETVEGIGSVMRSQQSLVSLMVETLVTMNTARSDLTTLEKNIQIVGNYIRDAGLASFMNTIKYGVETKMAALTLSNLRPDINKLRSLIDTYLSKGPRAPFICILKDPVHGEFAPGNYPALWSYAMGVAVVQNKAMQQYVTGRTYLDMEMFLLGQAVAKDAESKISSALEDELGVTDTAKERLRHHLANLSGGDGAYHKPTGGGAIEVALDNADIDLEPEAHTDQDARGWGGDSGDRWARSMGSGHFITLHGAERLEEETNDEDVSDIERRIARRLAERRQEDATTHEDEGRNNGVDHDEEDDAAAAAGMGGI", "notes": "Sendai virus nucleoprotein (N), wild type, uncleaved; the N-tail is printed as 404-524; helical polymer, number of protomers not fixed; also called SeV nucleoprotein; SeV nucleocapsid; source: E. coli BL21 (DE3), purified (HisTrap HP, Superose 6 increase)"}, "B2": {"name": "Sendai virus nucleoprotein loop mutant (residues 118 to 127 replaced with all alanine) (natural protein)", "chain": "B1 chain with F118A, I119A, V120A, K121A, T122A, R123A, D124A, M125A, E126A, Y127A", "notes": "Sendai virus nucleoprotein (N), derivative of NWT; also called Loop118–127 mutant; source: E. coli BL21 (DE3), purified (HisTrap HP, Superose 6 increase)"}, "B3": {"name": "Sendai virus nucleoprotein NWT over-expressed in HEK293F cells (natural protein)", "chain": "B1 chain", "notes": "Sendai virus nucleoprotein (N), wild type; Fractions were chosen by western blot against the 6xHis tag; also called NWT in pCAGGS; nucleoproteins isolated from HEK293F cells; source: HEK293F, transfected, isolated from lysate by two-step sucrose ultracentrifugation; not shown: His6, C-terminal, kept"}},
  "key": {"[1]": {"target": "the molecule itself", "assay": "cryo-EM structure; helical reconstruction of the helical stems of double-headed nucleocapsids (RELION 3.1); protein with bound host RNA in 20 mM Tris-HCl pH 7.4, 150 mM NaCl"}, "[2]": {"target": "the molecule itself", "assay": "electron microscopy of purified filaments; purified mutant nucleoproteins imaged by EM; whether negative stain or cryo-EM is not told in the text shown"}, "[3]": {"target": "the molecule itself", "assay": "cryo-EM imaging of filaments; nucleoprotein fractions from HEK293F lysate after two-step sucrose ultracentrifugation, put directly on cryo-EM grids"}},
  "note": "Positions count from the first letter of the chain named.",
  "data": [
    {"protein": "B1", "values": [
      {"measurement": "binding result", "setting": "[1]", "value": "binds"}
    ]},
    {"protein": "B2", "values": [
      {"measurement": "binding result", "setting": "[2]", "value": "binds"}
    ]},
    {"protein": "B3", "values": [
      {"measurement": "binding result", "setting": "[3]", "value": "binds"}
    ]}
  ]
}
